Earlier results as cited in paper PMC5724930.
Where two headings read alike, the source gives them in different places.

Key:
[1] = target: proPanD (Escherichia coli) (UniProt P0A790)
[2] = target: proPanD (Escherichia coli) (UniProt P0A790); remark: listed apart in the source

Chain of proPanD (Escherichia coli) (P0A790 whole entry): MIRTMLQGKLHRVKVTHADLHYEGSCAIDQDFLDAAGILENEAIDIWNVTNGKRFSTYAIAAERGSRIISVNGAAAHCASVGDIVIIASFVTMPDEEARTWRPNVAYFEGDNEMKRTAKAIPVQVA
Chain of PanZ (P37613 whole entry): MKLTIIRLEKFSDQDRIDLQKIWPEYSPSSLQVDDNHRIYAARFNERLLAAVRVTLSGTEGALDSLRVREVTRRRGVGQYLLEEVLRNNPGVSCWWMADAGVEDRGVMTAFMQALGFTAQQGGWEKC

Kd [1]: 0.1 µM
Kd [2]: 4 µM
Substance: PanZ (from UniProt P37613)
